What was measured:
[1] = target: T1, anti-mFc (AMC) Octet biosensor, blank; assay: BLI Octet, blank AMC sensor, 100 nM mAb, 25C
T1 construct: Sensor without captured protein, used as blank; also called Blank AMC Sensor
Method in brief: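 Antigen-mFc (human or cynomolgus ANGPTL8; hLDLR-mFc as negative control; one blank sensor) captured to ~1.6 nm from 10 μg/mL over 4 min. Sensors dipped 4 min in 100 nM mAb or isotype control at 25° C. Buffer: 10 mM HEPES pH 7.4, 150 mM NaCl, 0.05% Tween-20, 1 mg/ml BSA, shaken at 1000 rpm.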

[2] = target: T2, peptide from the N-terminal coiled-coil region of human ANGPTL4 (hANGPTL4 peptide, SEQ ID NO: 339) (human); assay: SPR, captured mAb, 500 nM peptide, 25C
T2 peptide: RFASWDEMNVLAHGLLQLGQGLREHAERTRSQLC

[3] = target: T3, human ANGPTL8 peptide (hANGPTL8 peptide, SEQ ID NO: 337) (human); assay: SPR, captured mAb, 500 nM peptide, 25C
T3 construct: also called N-terminal region ANGPTL8 peptide
T3 peptide: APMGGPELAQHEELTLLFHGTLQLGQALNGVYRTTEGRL

[4] = target: T4, peptide from the N-terminal coiled-coil region of human ANGPTL3 (hANGPTL3 peptide, SEQ ID NO: 338) (human); assay: SPR, captured mAb, 500 nM peptide, 25C
T4 construct: also called hANGPTL3 shift peptide
T4 peptide: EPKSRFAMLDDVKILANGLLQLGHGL

[5] = target: T5, monkey ANGPTL8 expressed with C-terminal mouse IgG2a Fc tag (MfANGPTL8-mFc; SEQ ID NO: 341) (cynomolgus monkey); assay: BLI Octet, captured antigen, 100 nM mAb, 25C
T5 construct: also called cynomolgus monkey ANGPTL8
T5 chain: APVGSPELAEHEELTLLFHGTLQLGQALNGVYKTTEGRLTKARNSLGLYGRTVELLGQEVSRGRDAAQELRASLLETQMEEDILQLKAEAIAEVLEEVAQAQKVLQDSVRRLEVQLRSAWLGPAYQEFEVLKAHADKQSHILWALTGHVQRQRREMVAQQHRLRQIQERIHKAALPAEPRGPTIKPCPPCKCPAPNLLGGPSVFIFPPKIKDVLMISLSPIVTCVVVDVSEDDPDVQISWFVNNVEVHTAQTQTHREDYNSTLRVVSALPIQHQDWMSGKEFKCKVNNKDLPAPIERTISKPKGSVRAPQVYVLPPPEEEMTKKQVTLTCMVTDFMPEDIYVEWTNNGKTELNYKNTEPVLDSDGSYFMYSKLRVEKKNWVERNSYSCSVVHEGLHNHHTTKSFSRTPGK

[6] = target: T6, human ANGPTL8 expressed with C-terminal mouse IgG2a Fc tag (hANGPTL8-mFc; SEQ ID NO: 340) (human); assay: BLI Octet, captured antigen, 100 nM mAb, 25C
T6 construct: also called Angiopoietin-like protein 8
T6 chain: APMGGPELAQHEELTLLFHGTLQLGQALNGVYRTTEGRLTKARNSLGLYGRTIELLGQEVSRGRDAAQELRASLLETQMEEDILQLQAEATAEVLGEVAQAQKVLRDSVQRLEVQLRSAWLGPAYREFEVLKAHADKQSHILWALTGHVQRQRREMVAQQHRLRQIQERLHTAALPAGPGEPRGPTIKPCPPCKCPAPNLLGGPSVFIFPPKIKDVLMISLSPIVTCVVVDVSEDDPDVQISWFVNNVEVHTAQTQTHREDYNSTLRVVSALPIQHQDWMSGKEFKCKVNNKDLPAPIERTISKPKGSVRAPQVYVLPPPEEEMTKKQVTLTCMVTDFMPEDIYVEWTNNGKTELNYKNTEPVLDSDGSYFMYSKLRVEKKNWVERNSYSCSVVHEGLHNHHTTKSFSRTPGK

[7] = target: T6, human ANGPTL8 expressed with C-terminal …; assay: BLI Octet, captured antigen, 100 nM mAb, 25C

B1: H4H15316P (antibody, human IgG4, V domains shown)
VH: EVQLVESGGGLVQPGRSLRLSCAASGFIFDDYDMHWVRQAPGKGLEWVSGISWNSGSKGYADSVKGRFTISRDNAKNSLYLQMNSLRAEDTALYYCTKGPWDYFDYWGQGTLVTVSS
VL: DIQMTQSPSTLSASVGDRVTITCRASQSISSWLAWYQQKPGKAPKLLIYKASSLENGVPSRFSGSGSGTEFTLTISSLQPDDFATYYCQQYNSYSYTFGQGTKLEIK
notes: H4H prefix: human IgG4 Fc
- mAb Binding Response (nm) [1]: 0.02 nm
- 500 nM hAngPTL4 peptide Bound (RU) [2]: 0 RU
- binding result [2]: no binding (tested: <9 RU at 500 nM peptide)
- 500 nM hANGPTL8 peptide Bound (RU) [3]: 0 RU
- binding result [3]: no binding (tested: <9 RU at 500 nM peptide)
- 500 nM hANGPTL3 peptide Bound (RU) [4]: 0 RU
- binding result [4]: no binding (tested: <9 RU at 500 nM peptide)
- mAb Binding Response (nm) [5]: 0.02 nm
- mAb Binding Response (nm) [6]: 0.03 nm
- binding result [7]: no binding (tested: 100 nM mAb; background 0.03 nm)
